{"source": "patent US7407671B2", "about": "“Temperature controlled solute delivery system” (Boston Scientific Scimed, Inc., priority 1998, dated 2008)", "assay": "Solute release from bonded HPC gel membranes (modified HPLC system)", "format": "physicochemical", "experimental": "Solute release tests were conducted in the same manner as for PNIPA gels, as described in Example 1. The solute release experiments were designed to model the actual conditions of catheter use, which entail therapeutic solute loading at room temperature (25° C.), insertion of the catheter into the patient at 37° C., and temperature induced enhanced solute release when the catheter is placed at a target location in the body. While the experimental design was generally successful in modeling the actual use of catheter, heat lost to the experimental apparatus tubing reduced the 37° C. test temperature to 33° C. Because the transition temperature of HPC is fairly sharp (in this case, 43° C.), the reduction of test temperature from 37° C. to 33° C. had little impact on the test results.\nSolute release experiments were conducted under four constant temperature conditions and three step change conditions. […] Thus, test temperatures below and above the transition temperature of HPC (43° C.) were used. […]", "data": [{"molecule": "ovalbumin: ovalbumin (M.w. 45,000 Da), model protein for bioactive proteins such as urokinase (protein, UniProt P01012 2-386, looked up) Ovalbumin: GSIGAASMEFCFDVFKELKVHHANENIFYCPIAIMSALAMVYLGAKDSTRTQINKVVRFDKLPGFGDSIEAQCGTSVNVHSSLRDILNQITKPNDVYSFSLASRLYAEERYPILPEYLQCVKELYRGGLEPINFQTAADQARELINSWVESQTNGIIRNVLQPSSVDSQTAMVLVNAIVFKGLWEKAFKDEDTQAMPFRVTEQESKPVQMMYQIGLFRVASMASEKMKILELPFASGTMSMLVLLPDEVSGLEQLESIINFEKLTEWTSSNVMEERKIKVYLPRMKMEEKYNLTSVLMAMGITDVFSSSANLSGISSAESLKISQAVHAAHAEINEAGREVVGSAEAGVDAASVSEEFRADHPFLFCIKHIATNAVLFFGRCVSP", "values": [{"measurement": "solute released before the temperature change", "setting": "HPC gel membrane 0.66 mm, first two minutes at 24° C.", "result": 11, "unit": "%"}, {"measurement": "solute released within the first 7 minutes of the test", "setting": "HPC gel membrane 0.66 mm, isothermal 24° C.", "result": "about 30%"}, {"measurement": "solute released in the five minutes immediately after the temperature change", "setting": "HPC gel membrane 0.66 mm, step 24° C. to 46° C.", "result": 54, "unit": "%"}, {"measurement": "solute released within the first 7 minutes of the test", "setting": "HPC gel membrane 0.66 mm, step 24° C. to 46° C. after about two minutes", "result": "about 65%"}, {"measurement": "ratio of the area of the convective pulse to the area of the isothermal release curve", "setting": "triggered release from HPC gel", "result": "much greater for ovalbumin than for methyl orange or estradiol"}]}]}
